Data on three substances can be found in patent publication US20020039776.

Sequence of GST-EZH2(382-747) (chain, as listed by the source): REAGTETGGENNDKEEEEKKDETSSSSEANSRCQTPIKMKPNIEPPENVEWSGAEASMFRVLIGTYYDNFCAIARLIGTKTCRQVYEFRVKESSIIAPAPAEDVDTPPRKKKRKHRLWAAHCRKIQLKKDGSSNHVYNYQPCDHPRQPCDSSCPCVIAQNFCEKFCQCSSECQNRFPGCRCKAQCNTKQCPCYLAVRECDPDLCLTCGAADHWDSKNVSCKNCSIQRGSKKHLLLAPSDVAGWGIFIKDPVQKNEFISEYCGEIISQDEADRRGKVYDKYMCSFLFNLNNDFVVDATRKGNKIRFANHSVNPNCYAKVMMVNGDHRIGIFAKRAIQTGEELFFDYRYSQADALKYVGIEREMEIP

In the data set the test system is free histones (mixture of H1, H3, H2B, H2A and H4; Boehringer Mannheim).
Regarding GST-HRX(3643-3969), the HMTase activity entry was “had undetectable HMTase activity towards free histones”.
GST-EZH2(382-747): the HMTase activity result is recorded as “had undetectable HMTase activity towards free histones”.
Turning to GST-Suv39h2(157-477), the HMTase activity result is “The SU(VAR)3-9 family members assayed, SUV39H1, Suv39h2 and CLR4, displayed HMTase activity”.
